Values of other authors as cited in article PMC7519539.

Target: RNA polymerase core (E) (Escherichia coli) (UniProt P0A7Z4)

Sequence of sigma38 (P13445 whole entry): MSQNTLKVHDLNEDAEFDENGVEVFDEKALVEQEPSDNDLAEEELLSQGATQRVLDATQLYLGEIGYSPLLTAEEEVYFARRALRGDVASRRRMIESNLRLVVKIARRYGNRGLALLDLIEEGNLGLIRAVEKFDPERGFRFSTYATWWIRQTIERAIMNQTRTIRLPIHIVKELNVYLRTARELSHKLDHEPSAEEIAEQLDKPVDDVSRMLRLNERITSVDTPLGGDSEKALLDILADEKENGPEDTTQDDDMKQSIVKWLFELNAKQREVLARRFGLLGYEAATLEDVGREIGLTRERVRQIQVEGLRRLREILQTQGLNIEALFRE

- Kd: 4.26 nM
Substance: sigma38 (from UniProt P13445)
